GFP expression by 2D3 cells (measure of TCR signaling) and percent block of the LAG-3/HLA-DR interaction data for two molecules are collected here from US20240067722A1.

Experiment [1] concerns the target human LAG-3 expressed on cells (human) (UniProt P18627).
For experiment [2], the target named is Recombinant human LAG-3 protein (Fc Chimera), R&D 2319-L3 (human) (UniProt P18627). Kind of experiment: flow cytometry competition, huLAG-3-Fc on HLA-DR expressing cells, VHH at 500 nM. Background: A flow cytometer gives signals particle by particle.

B1: huLAG-3 specific VHH 3150 (VHH)
VHH: QVQLQESGGGLVQAGGSLRLSCAASGITFDDYAIGWFRQAPGKEREGVSCIRSSDDSTYYADSVKGRFTISSDNAKNTVYLQMNSLKPEDTAVYYCARDVYSDCKGPYDSWGRGTQVTVSS
For B1, the GFP expression by 2D3 cells (measure of TCR signaling) in experiment [1] was 2 fold. The percent block of the LAG-3/HLA-DR interaction in experiment [2] turned out to be 75%.

B2: huLAG-3 specific VHH 3185 (VHH)
VHH: QVQLQESGGGLVQPGGSLKLSCAASGFTWDYSAIGWFRQAPGKEREGVSCITSSGKDTQYLDSVKGRFTISRDNTKNTVYLQMNNLKPEDTAVYYCAAPGRVRGSCNGRWDYWGQGTQVTVSS
For B2, the percent block of the LAG-3/HLA-DR interaction in experiment [2] was found to be 75%.
